The text below walks through data of publication PMC4768215, “Targeting surface-layer proteins with single-domain antibodies: a potential therapeutic approach against Clostridium difficile-associated disease” (Applied Microbiology and Biotechnology, 2015).

One may read the Kd as a measure of binding affinity in units of concentration. Low readings indicate a tighter complex, high ones a looser complex. In general, koff refers to a measure of how fast the partners let go of each other. A higher koff goes with fast dissociation. As usually defined, the kon is the rate constant with which the complex forms. A higher kon goes with fast association.

The target of assay [1] is T1, 630 SLP (surface layer protein of C. difficile strain 630, HMW and LMW subunits) (Clostridioides difficile 630 (ribotype …, UniProt Q183M8, strain)).
T1 construct: low-molecular-weight (LMW) subunit of the surface layer protein, cut from the precursor SlpA by Cwp84, C. difficile strain 630 (ribotype 012); predicted mass 34.2 kDa; high-molecular-weight (HMW) subunit of the surface layer protein, cut from the precursor SlpA by Cwp84, C. difficile strain 630 (ribotype 012); predicted mass 39.5 kDa; Both subunits come from one precursor, SlpA; source: purified …
The assay can be described thus: ELISA; monoclonal phage ELISA: phage-displayed VHHs on immobilized SLPs. As to conditions: one partner purified. (In general: In an ELISA, binding on a coated surface is turned into a signal by an enzyme label.)

The target in assay [2] is T2, SLP on cells of C. difficile strain 196 (ribotype 027) (Clostridioides difficile 196 (ribotype …, UniProt A0A9R0BMB3, strain)).
T2 construct: LMW subunit of the surface layer protein (from the precursor SlpA), C. difficile strain 196, ribotype 027; HMW subunit of the surface layer protein (from the precursor SlpA), C. difficile strain 196, ribotype 027; Whole cells were the antigen; source: endogenous, on formalin-fixed C. difficile 196 cells
The assay can be described thus: ELISA; whole cell ELISA: formalin-fixed C. difficile cells coated on MaxiSorp plates, His6-tagged VHH at 10 μg/ml in PBS-T, 37 °C, 1 h, detected with anti-His6-HRP. The note with it: one partner purified.

For assay [3], the target named is T3, SLP on cells of C. difficile strain BI-1 (ribotype 027) (Clostridioides difficile BI-1 (ribotype …, UniProt A0A9R0BMB3, strain)).
T3 construct: LMW subunit of the surface layer protein (from the precursor SlpA), C. difficile strain BI-1, ribotype 027; HMW subunit of the surface layer protein (from the precursor SlpA), C. difficile strain BI-1, ribotype 027; Whole cells were the antigen; source: endogenous, on formalin-fixed C. difficile BI-1 cells
Described as above. The note with it: one partner purified.

Assay [4] deals with T4, SLP on cells of C. difficile strain R20291 (ribotype 027) (Clostridioides difficile R20291 …, UniProt A0A9R0BMB3, strain).
T4 construct: LMW subunit of the surface layer protein (from the precursor SlpA), C. difficile strain R20291, ribotype 027; HMW subunit of the surface layer protein (from the precursor SlpA), C. difficile strain R20291, ribotype 027; Whole cells were the antigen; source: endogenous, on formalin-fixed C. difficile R20291 cells
The assay is described as above. As to conditions: one partner purified.

The target of assay [5] is T5, SLP on cells of C. difficile strain BI-7 (ribotype 027) (Clostridioides difficile BI-7 (ribotype …, UniProt A0A9R0BMB3, strain)).
T5 construct: LMW subunit of the surface layer protein (from the precursor SlpA), C. difficile strain BI-7, ribotype 027; HMW subunit of the surface layer protein (from the precursor SlpA), C. difficile strain BI-7, ribotype 027; Whole cells were the antigen; source: endogenous, on formalin-fixed C. difficile BI-7 cells
The assay is described as above. As to conditions: one partner purified.

In assay [6] the target is T6, QCD-32g58 LMW SLP (low-molecular-weight subunit of the QCD-32g58 surface layer protein) (Clostridioides difficile QCD-32g58 …, UniProt A0A9R0BMB3, strain).
T6 construct: low-molecular-weight (LMW) subunit of the surface layer protein, cut from the precursor SlpA by Cwp84, C. difficile strain QCD-32g58 (ribotype 027); predicted mass 33.9 kDa; also called QCD-32g58 SLP LMW subunit; LMW subunit; source: purified from C. difficile QCD-32g58 (low-pH glycine extraction, minor SEC peak at about 15 ml); in the Western blot the LMW band of the extracted SLPs
The experiment in a line: SPR; Biacore 3000; SEC-purified QCD-32g58 LMW SLP subunit amine-coupled to a CM5 chip; single-concentration screen, 200 nM VHH; 25 °C, 10 mM HEPES pH 7.4, 150 mM NaCl, 3 mM EDTA, 0.005 % P20. The note with it: both partners purified.

The target in assay [7] is T1, 630 SLP (surface layer protein of C. …). The assay can be described thus: SPR; Biacore 3000; 630 SLP immobilised on a CM5 chip, VHHs injected at various concentrations; data not shown. As to conditions: both partners purified. Background: SPR reads the build-up and loss of mass on a sensor chip optically.
In assay [8] the target is T7, QCD-32g58 SLP (surface layer protein of C. difficile strain QCD-32g58, HMW and LMW subunits) (Clostridioides difficile QCD-32g58 …, UniProt A0A9R0BMB3, strain).
T7 construct: low-molecular-weight (LMW) subunit of the surface layer protein, cut from the precursor SlpA by Cwp84, C. difficile strain QCD-32g58 (ribotype 027); predicted mass 33.9 kDa; high-molecular-weight (HMW) subunit of the surface layer protein, cut from the precursor SlpA by Cwp84, C. difficile strain QCD-32g58 (ribotype 027); predicted mass 44.2 kDa; Both subunits come from one precursor, SlpA; also …
The experiment in a line: SPR; Biacore 3000; SEC-purified QCD-32g58 SLP amine-coupled to a CM5 chip, VHH monomer fractions injected at various concentrations; 25 °C, 10 mM HEPES pH 7.4, 150 mM NaCl, 3 mM EDTA, 0.005 % P20, 20 μl/min; KD from kinetic rate constants. As to conditions: both partners purified.

Assay [9] addresses T7, QCD-32g58 SLP (surface layer protein of …). The experiment in a line: SPR; Biacore 3000; SEC-purified QCD-32g58 SLP amine-coupled to a CM5 chip, VHH monomer fractions injected at various concentrations; 25 °C, 10 mM HEPES pH 7.4, 150 mM NaCl, 3 mM EDTA, 0.005 % P20; KD by steady-state analysis. As to conditions: both partners purified.
The target is the same in assay [10]. The assay can be described thus: SPR; Biacore 3000; fresh QCD-32g58 SLP surface on a CM5 chip, a single injection of each VHH (50 mM NaOH regeneration destroyed the surface); 25 °C, 10 mM HEPES pH 7.4, 150 mM NaCl, 3 mM EDTA, 0.005 % P20; KD from kinetic rate constants. As to conditions: both partners purified.

B1: SLP_VHH50 displayed on phage (VHH)
VHH: QVKLEESGGGLVQPGGSLRLSCAASGFTLDYYTIGWFRQAPGKEREGVACISSDDRTYYVDSVKGRFAISRDNVKNTVYLQMNNLKPEDTAVYYCASKESVFLIATMKGCAPGHDDYWGQGTQVTVSS
notes: as the VHH of m9
For the molecule B1, the binding result in [1] was “no binding”.

B2: SLP_VHH46 (VHH)
VHH: QVKLEESGGGLVQAGGSLRLSCADSERTFRIYTMAWFRQAPGKERDFVAAISWSGGSTYYADSVKGRFTISRDNAKNTVYLPMNSLKPDDTAVYYCASGGVLSTGSQSDSEYDFWGQGTQVTVSS
notes: From an immune llama phage display library panned on QCD-32g58 SLP; source: monomeric SEC fractions for SPR; not shown: His6, C-terminal, kept
B2: the binding result in assay [2] was “binds”; in [3], “binds”; in [4], “binds”; in [5], “binds”; in assay [7], “no binding”. Further, the dissociation constant Kd in assay [6] came out at 2 nM; in [8], 3 nM. The off-rate (koff) in assay [6] amounted to 0.00032 s⁻¹; in assay [8], 0.00034 s⁻¹. Besides, the kon in assay [6] amounted to 150000 M⁻¹ s⁻¹; in [8] it was 110000 M⁻¹ s⁻¹.

B3: SLP_VHH46 displayed on phage (VHH)
VHH: B2 VHH
notes: as the VHH of m7
Turning to B3, the binding result in assay [1] is given as “no binding”.

B4: SLP_VHH22 displayed on phage (VHH)
VHH: QVQLVESGGGLVQPGGSLRLSCAASGFTLDSYAIGWFRQAPGKEHEGISCISSNGGSTYYTDSVKGRFTISRDNAKNTVYLQMNSLESEDSAVYYCATVRRCSSLDMALGALATRTKGYDYWGQGTQVTVSS
notes: as the VHH of m4
Regarding B4, the binding result in [1] was “no binding”.

B5: SLP_VHH2 (VHH)
VHH: QVKLEESGGGLVQPGGSLRLSCAASGGTFTNYAMAWFRQTPGNDREFVGIISQKGGRTYYADSVKGRFSVSRDNAKNTAYLQMNSLKPEDTAVYYCAAGDSSYYYTRSRYDIWGQGTQVTVSS
notes: as for B2
Regarding B5, the binding result in assay [2], in [3], in assay [4] and in assay [5] was “binds” throughout. Further, the Kd in assay [9] was determined as 230 nM; in assay [6] it was 90 nM; in assay [7], 1000 nM. This molecule displayed an off-rate constant (koff) in assay [6] of 0.013 s⁻¹. The kon in [6] was found to be 150000 M⁻¹ s⁻¹.

B6: SLP_VHH12 (VHH)
VHH: QVQLVESGGGLVQAGDSLRLSCAASGGTFSSYAVGWFRQAPGKERQFVAAISWSGRSTEYADSVKGRFTISRDNAKNTVYLQMNSLQPDDTGVYYCAADWSHPENKAELLRLRLWVLSAESSDYWGQGTQVTVSS
notes: as for B2
As for B6, the binding result in [2] was “binds”; in assay [3], “binds”; in [4] it was “binds”; in [5], “binds”; in [7] it was “no binding”. Besides, the figures for the equilibrium dissociation constant (Kd) in assay [10] and in assay [6] were 3 nM and 1 nM, respectively. In addition, the dissociation rate constant (koff) in [10] amounted to 0.00034 s⁻¹; in [6], 0.00012 s⁻¹. The on-rate constant (kon) in [10] amounted to 120000 M⁻¹ s⁻¹; in assay [6], 140000 M⁻¹ s⁻¹.

B7: SLP_VHH12 displayed on phage (VHH)
VHH: B6 VHH
notes: as the VHH of m3
B7: the binding result in assay [1] is “no binding”.

B8: SLP_VHH49 displayed on phage (VHH)
VHH: QVKLEESGGGLVQAGGSLRLSCAASEGAFSDALSRHAAGWFRQAPGKEREFVAAISWNGANTDYKNSVNNRFTISRDTSKNTVYLQMNSLKPEDTAVYYCAAKNEPSWISRIYYRGLEYDYWGQGTQVTVSS
notes: as the VHH of m8
On to B8, for which the binding result in assay [1] is recorded as “no binding”.

B9: SLP_VHH23 (VHH)
VHH: QVQLVESGGGLVQAGGSLRLSCAASGRTFSSYAVGWFRQAPGKEREFVAAISWSGGYTDYADSVKGRFTISRDNAKNTVYLQMNNLKPEDTAVYYCAADWSHPENKAELLRLRLWVLSAESSDDWGQGTQVTVSS
notes: as for B2
For the molecule B9, the binding result in assay [2] is listed as “binds”; in [3], “binds”; in assay [4] it was “binds”; in [5], “binds”; in assay [7] it was “no binding”. For the same molecule, the Kd in [10] turned out to be 4 nM; in assay [6], 3 nM. Also, the koff in assay [10] was determined as 0.00037 s⁻¹; in assay [6], 0.00032 s⁻¹. Besides, the figures for the kon in assay [10] and in assay [6] were 94000 M⁻¹ s⁻¹ and 110000 M⁻¹ s⁻¹, respectively.

B10: SLP_VHH23 displayed on phage (VHH)
VHH: B9 VHH
notes: as the VHH of m5
Consider B10, for which the binding result in assay [1] is listed as “no binding”.

B11: SLP_VHH5 (VHH)
VHH: QVKLEESGGGLVQAGGSLRLSCAASRLTFSTYHMGWFRQAPGKEREFVAALSWSGGTTYYADSVKGRFGISRDNAKNTVYLQMNSLKPEDTAVYYCASGGVLATMNSDEYDYWGQGTQVTVSS
notes: as for B2
Regarding B11, the binding result in [2], in assay [3], in assay [4] and in [5] was “binds” each time. Besides, the Kd in assay [6] was 3 nM; in assay [8] it was 6 nM. Further, the koff in assay [6] came to 0.00041 s⁻¹; in assay [8], 0.00046 s⁻¹. The on-rate (kon) in assay [6] is 140000 M⁻¹ s⁻¹; in assay [8], 82000 M⁻¹ s⁻¹.
